# Measured values from patent US20190077867A1 (REYOUNG SUZHOU BIOLOGY SCIENCE AND TECHNOLOGY, published 2019).
# T1: B7-1 (Homo sapiens (Human), UniProt P33681 35-242)
# T1 construct: probably human
# T1 sequence: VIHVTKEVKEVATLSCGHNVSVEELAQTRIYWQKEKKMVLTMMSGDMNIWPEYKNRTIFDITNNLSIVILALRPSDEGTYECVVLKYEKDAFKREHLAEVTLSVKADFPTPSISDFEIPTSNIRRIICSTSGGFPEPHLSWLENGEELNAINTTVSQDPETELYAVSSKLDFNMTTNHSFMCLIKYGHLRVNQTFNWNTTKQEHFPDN
# Columns and labels:
# hPD-L1-Fc [1] = target: T2, hPD-L1-Fc (human, UniProt Q9NZQ7 19-238, limits assumed); assay: competition ELISA: antibody pre-incubated with hPD-L1-Fc-Biotin, added to a plate printed as coated with hPD-L1-Fc, SA-HRP
# T2 construct: Plate-coated antigen in the Embodiment 1 ELISAs
# Experimental: B. ELISA Inhibitory Activity [0086] Incubate the gradient diluted antibody and a certain concentration of hPD-L1-Fc-Biotin, then add the mixture to the plate enveloped with hPD-L1-Fc. Add SA-HRP to the plate after incubating and washing. Then perform coloration. Draw up the reaction curve by fitting of readings (see FIG. 2 for results) to calculate the IC50 value.
# [2] = target: T3, hPD-L1 on hPD-L1-Fc over-expressed cells (human, UniProt Q9NZQ7 19-290); assay: cell inhibition assay: cells printed as PD1-27 (PD1 over-expressed CHO-K1), antibody, PD1-Fc-Biotin as competitor, Europium-labeled streptavidin
# T3 construct: whole, on cells; also called over-expressed hPD-L1-Fc cells
# From the text: D. Cell Inhibitory Activity [0090] Lay PD1-27 (PD1 over-expressed CHO-K1 stable transfected cells) on the cell plate for culture inspection one day ahead of schedule. After closure on the next day, add gradient-diluted antibody, then PD1-Fc-Biotin, then Europium-labeled streptavidin, and obtain the readings.
# [3] = target: T3, hPD-L1 on hPD-L1-Fc over-expressed cells; assay: cell binding on hPD-L1-Fc over-expressed cells, anti-mouse-EU fluorescence
# From the text: C. Cell Binding Activity [0088] Lay hPD-L1-Fc over-expressed cells on the cell plate for culture inspection one day ahead of schedule. After closure on the next day, add gradient-diluted antibody, then anti-mouse-EU. And then obtain the readings.
# hPD-L1-Fc [4] = target: T2, hPD-L1-Fc; assay: ELISA on coated hPD-L1-Fc, goat anti-mouse-HRP
# Experimental: A. ELISA Binding Activity [0084] Envelop hPD-L1-Fc on the plate, add gradient diluted antibody, incubate and wash it, and then add goat anti-mouse-HRP, perform coloration, and draw up the reaction curve by fitting of readings (the results as shown in FIG. 1) to calculate the EC50 value.
# [5] = target: T4, recombinant human PD-L1 expressed on the surface of CHO cells (human, UniProt Q9NZQ7 19-290); assay: cell ELISA on CHO cells expressing human PD-L1, anti-human-Eu fluorescence
# T4 construct: whole, on cells; also called CHO cells transfected by PD-L1; CHO cells with PD-L1 expressed on the surface
# Experimental: A Chinese hamster ovary (CHO) cell line expressing recombinant human PD-L1 on cell surface is constructed and its binding specificity to humanized antibody anti-PD-L1-1 is determined by ELISA assay. The cells are overlaid on PD-L1 the day before the test, and 1/200 cells are filled with T75 bottles on each well. Then add 1% BSA and seal at 37° C. for 1 hour. The antibody is diluted three folds starting from 5 μg/mL for 8 concentration gradients, incubated at 25° C. for 1 hour, and washed with PBST for one time. The volume of 50 ng/mL anti-human-Eu added to each well is 100 μL, with reaction time of 0.5 hours at 25° C., and washing with PBS for one time. Add fluorescence enhancement liquid and read values at exciting light 337 nm/emitted light 620 nm.
# [6] = target: T5, recombinant human PD-L1 fusion protein (human, UniProt Q9NZQ7 19-238); assay: ELISA, recombinant human PD-L1 fusion protein coated, antibody after 0 days in monkey serum at 37 °C, goat anti-human FAB-HRP, OD450
# T5 construct: This may be the same reagent as hPD-L1-Fc
# Experimental: (§1) The recombinant human PD-L1 fusion protein is stored at the concentration of 0.5 μg/mL at 4° C. overnight in enveloping buffer. Remove the solution in wells the next day and wash with PBST for twice. Then add 1% BSA, seal at 37° C. for 1 hour, then wash with PBST for twice. The stable antibody samples are diluted three folds starting from 1 μg/mL for 8 concentration gradients, incubated at 37° C. for 1 hour, and washed with PBST for three times. Dilute with goat anti-human FAB-HRP at ratio of 1:10000, incubate for 1 hour at 37 C, and wash with PBST for three times. Add TMB for 15 min coloration, stop the reaction with 0.5M H₂SO₄ and read out the absorbance at 450 nm.
# [7] = target: T5, recombinant human PD-L1 fusion protein; assay: ELISA, recombinant human PD-L1 fusion protein coated, antibody after 1 day in monkey serum at 37 °C, goat anti-human FAB-HRP, OD450
# Experimental: as §1
# B7-1 = target: T1, B7-1; assay: ELISA on coated protein, goat anti-human FAB-HRP, OD450
# Experimental: The binding of B7 family members B7-1, B7-2 to PD-L2 protein, and the binding of mouse, M. fascicularis and human PD-L1 protein to humanized antibody anti-PD-L1-1 are tested. Different proteins are stored at […] in enveloping buffer at 4° C. overnight. Remove the solution in wells the next day and wash with PBST for twice. Then add 1% BSA, seal at 37° C. for 1 hour, then wash with PBST for twice. Add 0.5 μg/mL antibody samples, incubate for 1 hour, and wash with PBST for three times. Dilute with goat anti-human FAB-HRP at ratio of 1:10000, incubate for 1 hour at 37 C, and wash with PBST for three times. Add TMB for 15 min coloration, stop the reaction with 0.5M H₂SO₄ and read out the absorbance at 450 nm.
# [8] = target: T5, recombinant human PD-L1 fusion protein; assay: ELISA, recombinant human PD-L1 fusion protein coated, antibody after 4 days in monkey serum at 37 °C, goat anti-human FAB-HRP, OD450
# Experimental: as §1
# [9] = target: T5, recombinant human PD-L1 fusion protein; assay: ELISA on coated recombinant human PD-L1 fusion protein, goat anti-human FAB-HRP
# Experimental: The recombinant human PD-L1 fusion protein of 0.5 μg/mL is stored at 4° C. overnight in enveloping buffer. Remove the solution in wells the next day and wash with PBST for twice. Then add 1% BSA and seal at 37° C. for 1 hour. Wash with PBST for twice. The antibody is diluted three folds starting from 5 μg/mL for 8 concentration gradients, incubated at 25° C. for 1 hour, and washed with PBST for three time. Dilute with goat anti-human FAB-HRP at ratio of 1:10000, incubate for 1 hour at 37 C, and wash with PBST for three times. Add TMB for 15 min coloration, stop the reaction with 0.5M H₂SO₄ and read out the absorbance at 450 nm.
# [10] = target: T5, recombinant human PD-L1 fusion protein; assay: ELISA, recombinant human PD-L1 fusion protein coated, antibody after 7 days in monkey serum at 37 °C, goat anti-human FAB-HRP, OD450
# Experimental: as §1
# [11] = target: T5, recombinant human PD-L1 fusion protein; assay: competition ELISA on coated recombinant human PD-L1 fusion protein, PD1-Fc-Biotin as competitor, streptavidin-HRP
# Experimental: The recombinant human PD-L1 fusion protein of 0.5 μg/mL is stored at 4° C. overnight in enveloping buffer. Remove the solution in wells the next day and wash with PBST for twice. Then add 1% BSA, seal at 37° C. for 1 hour, then wash with PBST for twice. The antibody is diluted 2.5 folds starting from 10 μg/mL for 8 concentration gradients, mixed with same volume of 1 μg/mL PD1-Fc-Biotin, incubated at 25° C. for 1 hour, and washed with PBST for one time. Incubate with goat streptavidin-HRP at ratio of 1:10000 for 1 hour at 37 C, and wash with PBST for three times. Add TMB for 15 min coloration, stop the reaction with 0.5M H₂SO₄ and read out the absorbance at 450 nm.
# T5 sequence (Q9NZQ7 19-238): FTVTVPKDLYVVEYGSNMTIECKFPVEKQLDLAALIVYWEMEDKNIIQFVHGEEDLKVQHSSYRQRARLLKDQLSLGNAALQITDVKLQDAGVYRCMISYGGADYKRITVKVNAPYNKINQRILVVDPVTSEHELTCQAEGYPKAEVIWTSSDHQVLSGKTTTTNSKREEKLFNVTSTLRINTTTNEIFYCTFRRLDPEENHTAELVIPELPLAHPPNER
# T2 sequence (Q9NZQ7 19-238 limits assumed): as the sequence (Q9NZQ7 19-238) above
# T3 sequence (Q9NZQ7 19-290): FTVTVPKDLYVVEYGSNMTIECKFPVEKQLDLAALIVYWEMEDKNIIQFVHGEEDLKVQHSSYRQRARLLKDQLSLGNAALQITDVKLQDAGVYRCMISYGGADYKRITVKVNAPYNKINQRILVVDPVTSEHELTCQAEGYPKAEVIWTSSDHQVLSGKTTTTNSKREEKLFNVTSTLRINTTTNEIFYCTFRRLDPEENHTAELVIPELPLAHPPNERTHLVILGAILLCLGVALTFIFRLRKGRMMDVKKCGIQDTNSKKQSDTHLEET
# T4 sequence (Q9NZQ7 19-290): as above
IC50 (hPD-L1-Fc [1]) [nM],IC50 [2] [µg/mL],EC50 [3] [µg/mL],EC50 (hPD-L1-Fc [4]) [µg/mL],EC50 [5] [µg/mL],EC50 (read off the curve) [6] [µg/mL],EC50 (read off the curve) [7] [µg/mL],binding result (B7-1),EC50 (read off the curve) [8] [µg/mL],EC50 [9] [µg/mL],EC50 (read off the curve) [10] [µg/mL],IC50 [11] [µg/mL],Binder
0.86,0.638,0.0303,0.00167,,,,,,,,,"mouse anti-PD-L1 (antibody, V domains shown, also called mouse PD-L1 antibody; mouse anti-PD-L1 monoclonal antibody) VH: KVQLQQSGAELVKPGASVKLSCKASGYTFTKYIIHWIKQRSGQGLEWIGWFYPGSGNIRYNEKIKGKATLTADKSSSTVYMELSGLTSEDSAVYFCARHGELGGGYFFDYWGQGTTLTVSS VL: QIVLSQSPTILSASPGEKVTMTCRASSSVSNIHWYQQKTGSSPKPWIYATSNLASGAPVRFSGSGSGTSYSLTISRVEAEDAATYYCQQWSSNPLTFGPGTKLELKR"
,,,,0.0935,~0.04,~0.04,no binding (tested: 0.5 µg/mL antibody),~0.04,0.0195,~0.04,0.0432,"humanized antibody anti-PD-L1-1 (antibody, V domains shown, Expressed in CHO-KSM4 cells; also called humanized PD-L1 antibody) VH: EVQLVQSGAEVKKPGASVKVSCKASGYTFTKYIIHWVRQAPGQGLEWMGWFYPGSGNIRYNEKIKGRVTMTRDTSTSTVYMELSSLRSEDTAVYYCARHGELGGGYFFDYWGQGTTVTVSS VL: DIQLTQSPSFLSASVGDRVTITCRASSSVSNIHWYQQKPGKAPKPWIYATSNLASGVPSRFSGSGSGTEFTLTISSLQPEDFATYYCQQWSSNPLTFGQGTKLEIKR"
